# According to US20030092157, “Compositions, screening systems and methods for modulating HDL cholesterol and triglyceride levels” (published 2003):
# T1: LXRα/RXR heterodimer (expressed in Cos-1) (Homo sapiens? / Mus musculus?, UniProt Q13133;P28700 Q13133:1-447,P28700:1-467)
# T1 sequence 1: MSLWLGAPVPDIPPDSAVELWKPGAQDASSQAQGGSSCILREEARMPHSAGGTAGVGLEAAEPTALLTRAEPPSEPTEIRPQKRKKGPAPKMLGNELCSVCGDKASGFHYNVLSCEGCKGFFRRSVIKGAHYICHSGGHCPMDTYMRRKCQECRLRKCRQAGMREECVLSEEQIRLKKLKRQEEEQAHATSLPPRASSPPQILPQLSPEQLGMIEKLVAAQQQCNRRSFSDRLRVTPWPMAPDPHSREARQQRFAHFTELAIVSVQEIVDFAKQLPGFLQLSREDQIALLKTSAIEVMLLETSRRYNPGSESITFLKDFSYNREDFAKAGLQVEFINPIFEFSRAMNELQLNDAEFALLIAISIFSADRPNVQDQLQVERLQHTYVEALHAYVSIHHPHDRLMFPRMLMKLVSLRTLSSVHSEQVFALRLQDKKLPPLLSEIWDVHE
# T1 sequence 2: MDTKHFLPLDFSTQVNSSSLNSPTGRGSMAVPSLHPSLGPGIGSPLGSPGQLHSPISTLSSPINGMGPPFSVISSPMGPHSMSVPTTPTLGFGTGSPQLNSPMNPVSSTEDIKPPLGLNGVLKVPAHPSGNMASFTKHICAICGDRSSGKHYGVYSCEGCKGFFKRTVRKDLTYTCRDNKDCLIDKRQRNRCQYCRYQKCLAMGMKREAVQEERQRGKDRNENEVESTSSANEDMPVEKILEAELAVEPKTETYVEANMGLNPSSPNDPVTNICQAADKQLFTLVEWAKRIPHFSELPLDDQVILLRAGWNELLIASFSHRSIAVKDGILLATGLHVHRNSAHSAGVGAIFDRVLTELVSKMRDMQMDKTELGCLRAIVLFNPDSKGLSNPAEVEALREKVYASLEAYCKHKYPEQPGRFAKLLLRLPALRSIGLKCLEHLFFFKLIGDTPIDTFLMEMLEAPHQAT
# T2: LXRα/RXRα heterodimer (/ Mus musculus, UniProt Q13133;P28700 Q13133:1-447,P28700:1-467)
# T2 sequence 1: T1 sequence 1
# T2 sequence 2: T1 sequence 2
# B1: -4696 LXRE (ABC1 intron 1) (dsDNA)
# DNA 1: GGATCACCTGAGGTCA
# DNA 2: TGACCTCAGGTGATCC
# B2: +4-LXRE (ABC1 exon 1/promoter) (dsDNA)
# DNA 1: AGGTTACTATCGGTCA
# DNA 2: TGACCGATAGTAACCT
# B3: -7670 LXRE (ABC1 intron 1) (dsDNA)
# DNA 1: AGGTTACTGAAGGCCA
# DNA 2: TGGCCTTCAGTAACCT
# B4: -7188 LXRE (ABC1 intron 1) (dsDNA)
# DNA 1: AGATCACTTGAGGTCA
# DNA 2: TGACCTCAAGTGATCT
# Tests used:
# [1] = target: T1, LXRα/RXR heterodimer (expressed in …); assay: cell_activity; 3 copies, luciferase, 1 µM 22(R)-hydroxycholesterol
# Procedure: (§1) FIG. 3 is a bar graph illustrating that the LXREs are functional for LXRα transactivation. Cos-1 cells were cotransfected with multiple copies of the putative LXREs in the reporter plasmid TKpGI3 and expression plasmids for LXRα and RXR. Cells were then treated for 48 h with 1 μM 22(R)-hydroxycholesterol. Luciferase activity was determined and plotted as fold activation relative to vehicle-treated cells.
# (§2) Cells were transfected for 3 hours by lipofection using ExGen 500 (Euromedex) in OPTIMEM 1. Medium was then replaced by Dulbecco's Modified Eagle's Medium (DMEM) containing 0.2% fetal calf serum and cells were incubated for 48 hours. Cell extracts were prepared and assayed for luciferase activity as described(15). Twenty-four hours before transfection, HepG2 cells, HUH7 cells, CaCo2 cells and RK13 cells were plated in 24-well plates in DMEM supplemented with 10% fetal calf serum at 5×10⁴ cells/well. Transfection mixes contained 100 ng of tkpGI3 reporter vector or pGI3 containing an 8 kb fragment from ABC1 intron I (pGI3-8 kb) (FIG. 1). Cos-1 cells were plated in 24-well plates in DMEM supplemented with 10% fetal calf serum at 5×10⁴ cells/well. Transfection mixes contained 50 ng of reporter plasmid (tkpGI3) containing multiple copies of the putative LXREs and 25 ng of LXRα and RXR expression plasmids, in the presence of the internal control β-gal expression vector. […]
# [2] = target: T2, LXRα/RXRα heterodimer; assay: competition; competed efficiently for CYP7-LXRE probe; details: tags: pCDNA3-LXRα and pSG5-mRXRα, TNT coupled transcription/translation system (Promega)
# Procedure: (§3) For FIG. 2A, HepG2 (liver), HuH7 (hepatoma), CaCo₂ (intestinal) and RK13 (kidney) cell lines were cotransfected with empty pGI3 vector or pGI3 containing an 8 kb fragment upstream of exon 2 of ABC1 intron 1 (pGI3-8 kb). Cells were then incubated for 48 hour. Luciferase activity was determined and plotted as fold activation relative to empty pGI3-transfected cells. The results of gel mobility shift assays in which LXRα and RXR were incubated as indicated with the radiolabeled probe corresponding to CYP7-LXRE are shown in FIG. 2B.
# (§4) To investigate whether these DR4 were indeed able to bind LXR-RXR heterodimers, gel retardation assays were performed (FIG. 2B). […] As a control, the unlabeled LXRE previously described in ABC1 exon 1 (+4-LXRE) (10,11) also competed efficiently for binding. The signal was then competed with increasing quantities of each unlabeled putative LXRE.
# [3] = target: T1, LXRα/RXR heterodimer (expressed in …); assay: cell_activity; 3 copies, luciferase, 1 µM 22(R)-hydroxycholesterol; text's "2-fold and 6-fold, respectively"
# Procedure: as §1, §2
# [4] = target: T2, LXRα/RXRα heterodimer; assay: competition; dose-dependent competition, 5-, 25-, 50-fold excess; details: tags: pCDNA3-LXRα and pSG5-mRXRα, TNT coupled transcription/translation system (Promega)
# Procedure: as §3, §4
binder,measurement,setting,value
B1,activity,[1],2 fold induction
B2,binding result,[2],binds
B3,activity,[3],6 fold induction
B4,binding result,[4],binds
